Results as given in patent US5587462, “Brain-derived membrane-associated CRF binding proteins” (The Salk Institute For Biological Studies, dated 1996).
Values belong to the molecule of their own block, whether it stands above or below them.

How the values were obtained:
[1] = target: 33 kD ovine brain-derived membrane-associated CRF-BP (sheep (ovine)); assay: competition of radiolabeled CRF binding by cold CRF
[2] = target: 35 kD ovine brain-derived membrane-associated CRF-BP (sheep (ovine)); assay: as above
[3] = target: T1, human Corticotropin-Releasing Factor (hCRF) (human (same molecule in rat), UniProt P06850, 125I-radiolabeled in the binding, cross-linking and LIRMA assays; immobilized on a solid-phase matrix in the affinity chromatography); assay: binding assay with purified membrane-associated CRF-BP
T1 peptide: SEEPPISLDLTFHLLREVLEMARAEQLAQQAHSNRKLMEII

concentration of cold CRF that competes [1]: 1 µM | concentration of cold CRF that competes [2]: 1 µM
Molecule: Corticotropin-Releasing Factor (CRF), species not stated at the experiment (peptide)

Kd [3]: 0.25 nM
B1: 33 kD ovine brain-derived membrane-associated CRF-BP (other)
chain: ELEGEPLYRRALRCVDMLSLQGQFTFTADRRQLHCATFFIAEPEEFITIHYDLVSIDCLRGDILQVFDGWILKGEKFPSSQDHPLPTTERYVDFCDSGLSRRSIRSSQNVAMIFFRVHEPGNGFTITVKTEPNLFPCNIISQTPNGRFTLVMPHQHRNCSFSIIYPVAIKISDLTLGHLNGLQLKKSSAGCGGIGDFVELLGGTGLDPSKMLLLADLCYPLRGPAQMKVGCDHTVLRMVSSGKLLNRVTFEYRKLEPYELENPNGNSIQEFCLSTL

Kd [3]: 7.5 nM
B2: 35 kD ovine brain-derived membrane-associated CRF-BP (other)
chain: EAVDHDSFPHLAGGASPKRELEGEPLYRRALRCVDMLSLQGQFTFTADRRQLHCATFFIAEPEEFITIHYDLVSIDCLRGDILQVFDGWILKGEKFPSSQDHPLPTTERYVDFCDSGLSRRSIRSSQNVAMIFFRVHEPGNGFTITVKTEPNLFPCNIISQTPNGRFTLVMPHQHRNCSFSIIYPVAIKISDLTLGHLNGLQLKKSSAGCGGIGDFVELLGGTGLDPSKMLLLADLCYPLRGPAQMKVGCDHTVLRMVSSGKLLNRVTFEYRKLEPYELENPNGNSIQEFCLSTL
